Assay results as given in paper PMC10432269, “Diverse modes of H3K36me3-guided nucleosomal deacetylation by Rpd3S” (Nature, 2023).
No end group written: not given here.

B1: Rco1 (natural protein, S. cerevisiae, UniProt Q04779 1-684, looked up)
chain: MDTSKKDTTRSPSHSNSSSPSSSSLSSSSSKEKKRPKRLSSQNVNYDLKRRKIITSEGIERSFKNEHSNLAVEDNIPEEEPKELLEKDSKGNIIKLNEPSTISEDSKVSVTGLPLNKGPSEKIKRESLWNYRKNLGGQSNNSEMTLVPSKRFTQVPKNFQDLNRNDLKTFLTENMTEESNIRSTIGWNGDIINRTRDREPESDRDNKKLSNIRTKIILSTNATYDSKSKLFGQNSIKSTSNASEKIFRDKNNSTIDFENEDFCSACNQSGSFLCCDTCPKSFHFLCLDPPIDPNNLPKGDWHCNECKFKIFINNSMATLKKIESNFIKQNNNVKIFAKLLFNIDSHNPKQFQLPNYIKETFPAVKTGSRGQYSDENDKIPLTDRQLFNTSYGQSITKLDSYNPDTHIDSNSGKFLICYKCNQTRLGSWSHPENSRLIMTCDYCQTPWHLDCVPRASFKNLGSKWKCPLHSPTKVYKKIHHCQEDNSVNYKVWKKQRLINKKNQLYYEPLQKIGYQNNGNIQIIPTTSHTDYDFNQDFKITQIDENSIKYDFFDKIYKSKMVQKRKLFQFQESLIDKLVSNGSQNGNSEDNMVKDIASLIYFQVSNNDKSSNNKSASKSNNLRKLWDLKELTNVVVPNELDSIQFNDFSSDEIKHLLYLKKIIESKPKEELLKFLNIENPENQSE
notes: Rco1, S. cerevisiae, full length; residues 107-565 (Rco1-A) and 262-358 (Rco1-B) are modelled in the structure; The complex was captured on strep beads by the Strep-tag of Rco1; the tag was then cleaved with TEV protease before anion exchange and SEC; Two copies (Rco1-A, Rco1-B) stand in the Rpd3S complex; also called Rco1-A; Rco1-B; not shown: Strep-tag, N-terminal, cleaved

Columns and labels:
[1] = target: the molecule itself; assay: cryo-EM structure; free Rpd3S complex, subunits co-expressed in Sf9 and purified together; stabilised by GraFix (glycerol gradient with 0.15% glutaraldehyde); 3.2 Å overall, local maps 2.7 Å and 3.2 Å
[2] = target: T1, unmodified histone H3 residues 1–10 peptide; assay: ITC; 25 °C, MicroCal PEAQ-ITC; 20 mM Tris 7.5, 50 mM NaCl, 5% glycerol; one set of binding sites model; conditions: both partners purified
T1 construct: Histone H3 residues 1-10, unmodified; also called H3_(1–10); H3un; source: synthetic peptide
T1 peptide: ARTKQTARKS

Row | Binder | binding result [1] | Kd [2]
1 | B1 | binds | 
2 | EDFCSACNQSGSFLCCDTCPKSFHFLCLDPPIDPNNLPKGDWHCNECKFK (domain or fragment, cysteine pairing not given here; also: Zn2+ bound) [PHD1 domain of Rco1] |  | ~39 µM
